Laboratory results from paper PMC8162069.

System: O=C[C@H](O)COP(=O)(O)O
Experiment: purified protein
Type: biochemical, Homo sapiens
Details: without HA

Substance	Km	kcat	kcat/Km
Hs-GAPDH (Homo sapiens)	0.24 ± 0.02 mM	21.7 ± 1.67 s⁻¹	90000 M⁻¹ s⁻¹
Hs-GAPDH (Homo sapiens; A232S/F233V)	0.49 ± 0.21 mM	7.67 ± 2 s⁻¹	15700 M⁻¹ s⁻¹
